Source: PMC3616705 (Nucleic Acids Research, 2013)

Legend:
AUC = target: the molecule itself; test: AUC
[1] = target: Los1p·Gsp1p export complex (GST-Los1p together with GST-Gsp1p on glutathione resin) (yeast, UniProt P33418 1-1100; P32835 1-219); test: pull-down

| Binder | stoichiometry N (AUC) | binding result [1] |
| --- | --- | --- |
| wild-type, full-length Cex1p (cytoplasmic export protein), N-terminal His tag (natural protein, Saccharomyces cerevisiae, UniProt Q12453 1-761, looked up) MNFSSIFKSISNFQFPYTIEETAITETALWQCFDGTRKADSLPVTVFKAKRSPENESLILNAVHKSKILKIPGLCTVLETFDSDPQSTFIVTERVVPFPWDNLGSLSQNKFGVELGISQLLATLGFLKNFVLGTLSKDSVFINIKGEWVLFGLELCSSKEGLSAFEFASRARSYYNIIGSQLPCEDPNTIDSMGLGLLIKSLMAPSCLPKDWIVNVNMISDGKITIENFRKRLENTETWRSNPLINFYQELRELHIKDPQGKLVVMSNLENLYLESREIFRNLTPGMIENFIIPELCEIIKLLMTQSISSAASPIGMNFNASHKLVPFLAIVLDLTSETNTFPVGFNDLITQSFKLPDRQVRFLLLIYLPKLIGPLSKSEISSRIYPHFIQGLTDSDATLRLQTLKTIPCIVSCLTERQLNNELLRFLAKTQVDSDVEIRTWTVIIISKISTILSTSVGNRSNILATAFTKSLKDPQVKPRLAALYGLEKSIELFDVNTIANKILTVIAPGLLDKSPIVRGRAKILFEEYLEKLEKEAQLIQTNDSTADSEDVKDIDFENYGCDEEDMNKEDNLLAAQFLNNLRLNSPSATTPSNITESEIDSAQDGSGWDDLSDTDGFITNGTTESFDETTNPVTTASTPKLFGKPIKINKSWNDELNDDGWIQDESGPSKVPQKHTRPQNSTLAKSIAPSSRLSIKKKKTTILAPRNIASNSTVTTKSSLSNKTARSKPISSIRGSVTKKGNVDGWDDDGDSDSWDTNW | 2 | binds |
| Cex1pΔC-SER (residues 9-564, E535A/K536A/E537A) with N-terminal His tag, as used in the pull-down (domain or fragment, Saccharomyces cerevisiae, UniProt Q12453 9-564, looked up) SISNFQFPYTIEETAITETALWQCFDGTRKADSLPVTVFKAKRSPENESLILNAVHKSKILKIPGLCTVLETFDSDPQSTFIVTERVVPFPWDNLGSLSQNKFGVELGISQLLATLGFLKNFVLGTLSKDSVFINIKGEWVLFGLELCSSKEGLSAFEFASRARSYYNIIGSQLPCEDPNTIDSMGLGLLIKSLMAPSCLPKDWIVNVNMISDGKITIENFRKRLENTETWRSNPLINFYQELRELHIKDPQGKLVVMSNLENLYLESREIFRNLTPGMIENFIIPELCEIIKLLMTQSISSAASPIGMNFNASHKLVPFLAIVLDLTSETNTFPVGFNDLITQSFKLPDRQVRFLLLIYLPKLIGPLSKSEISSRIYPHFIQGLTDSDATLRLQTLKTIPCIVSCLTERQLNNELLRFLAKTQVDSDVEIRTWTVIIISKISTILSTSVGNRSNILATAFTKSLKDPQVKPRLAALYGLEKSIELFDVNTIANKILTVIAPGLLDKSPIVRGRAKILFEEYLEKLAAAAQLIQTNDSTADSEDVKDIDFENYGCD | – | binds |
| Cex1p9-358 (N-terminal kinase-like domain of Cex1p), N-terminal His tag (domain or fragment, Saccharomyces cerevisiae, UniProt Q12453 9-358, looked up) SISNFQFPYTIEETAITETALWQCFDGTRKADSLPVTVFKAKRSPENESLILNAVHKSKILKIPGLCTVLETFDSDPQSTFIVTERVVPFPWDNLGSLSQNKFGVELGISQLLATLGFLKNFVLGTLSKDSVFINIKGEWVLFGLELCSSKEGLSAFEFASRARSYYNIIGSQLPCEDPNTIDSMGLGLLIKSLMAPSCLPKDWIVNVNMISDGKITIENFRKRLENTETWRSNPLINFYQELRELHIKDPQGKLVVMSNLENLYLESREIFRNLTPGMIENFIIPELCEIIKLLMTQSISSAASPIGMNFNASHKLVPFLAIVLDLTSETNTFPVGFNDLITQSFKLPD | 2 | binds |
| Cex1pΔC-SER (residues 9-564, E535A/K536A/E537A), His tag removed (domain or fragment, Saccharomyces cerevisiae, UniProt Q12453 9-564, looked up) SISNFQFPYTIEETAITETALWQCFDGTRKADSLPVTVFKAKRSPENESLILNAVHKSKILKIPGLCTVLETFDSDPQSTFIVTERVVPFPWDNLGSLSQNKFGVELGISQLLATLGFLKNFVLGTLSKDSVFINIKGEWVLFGLELCSSKEGLSAFEFASRARSYYNIIGSQLPCEDPNTIDSMGLGLLIKSLMAPSCLPKDWIVNVNMISDGKITIENFRKRLENTETWRSNPLINFYQELRELHIKDPQGKLVVMSNLENLYLESREIFRNLTPGMIENFIIPELCEIIKLLMTQSISSAASPIGMNFNASHKLVPFLAIVLDLTSETNTFPVGFNDLITQSFKLPDRQVRFLLLIYLPKLIGPLSKSEISSRIYPHFIQGLTDSDATLRLQTLKTIPCIVSCLTERQLNNELLRFLAKTQVDSDVEIRTWTVIIISKISTILSTSVGNRSNILATAFTKSLKDPQVKPRLAALYGLEKSIELFDVNTIANKILTVIAPGLLDKSPIVRGRAKILFEEYLEKLAAAAQLIQTNDSTADSEDVKDIDFENYGCD | 2 | – |
